Measurements as given in patent US8357518B2, “Thermostable enzymes for the hydrolysis of mannan-containing polysaccharides” (The Board of Trustees of the University of Illinois, priority 2010, dated 2013).

Experiments:
Format in all cases: biochemical, Caldanaerobius polysaccharolyticus
[1] = substrate: O=[N+]([O-])c1ccc(O[C@@H]2O[C@H](CO)[C@@H](O)[C@H](O)[C@@H]2O)cc1; experiment: Kinetic properties with pNP-linked sugars (Man5B E137A); conditions: other: Man5B E137A 2 μM, at 10 mM substrate, 65° C., pH 5.5
Method: (§1) Determination of kinetic properties for wild type and mutant Man5B with pNP-linked sugars. Kinetic properties of wild type and mutant Man5B were determined for pNP-β-D-mannopyranoside and pNP-β-D-cellobioside. The substrate concentrations ranged from 0.06 to 10 mM and reactions were performed at 65° C. in citrate buffer (50 mM sodium citrate, pH 5.5). The reactions were equilibrated to 65° C. using a thermostated Cary 300 UV-Vis spectrophotometer, and the reactions were initiated by the addition of wild type (5 nM, final concentration) or mutant (2 μM, final concentration) Man5B. The rate of pNP release was determined by continuously monitoring the absorbance at 400 nm. Initial rate data were then plotted against the substrate concentrations, and the values of the Michaelis-Menten constant (KM) and the maximum velocity (Vmax) were estimated from a nonlinear curve fit using GraphPad Prism v5.01 from GraphPad Software (San Diego, Calif.). The kcat was calculated as the quotient of the Vmax and the concentration of enzyme used in the reaction.
(§2) Site-directed mutagenesis. Mutagenesis was carried out using PCR-based […] […]
(§3) Next, to test whether the mutations introduced in Man5B had any effects on the catalytic activity of this enzyme, the catalytic parameters for the wild type and mutant enzymes were determined using pNP-β-D-cellobioside and pNP-β-D-mannopyranoside as substrates.

[2] = substrate: O=[N+]([O-])c1ccc(O[C@@H]2O[C@H](CO)[C@@H](O[C@@H]3O[C@H](CO)[C@@H](O)[C@H](O)[C@H]3O)[C@H](O)[C@H]2O)cc1; experiment: as above; conditions: other: Man5B E137A 2 μM, at 10 mM substrate, 65° C., pH 5.5
Method: as §1, §2, §3

[3] = substrate: O=[N+]([O-])c1ccc(O[C@@H]2O[C@H](CO)[C@@H](O)[C@H](O)[C@@H]2O)cc1; experiment: Kinetic properties with pNP-linked sugars (Man5B E137Q); conditions: other: Man5B E137Q 2 μM, at 10 mM substrate, 65° C., pH 5.5
Method: as §1
(§4) Site-directed mutagenesis. Mutagenesis was carried out using PCR-based […] XL site-directed mutagenesis kit from Stratagene (La Jolla, Calif.) according to the manufacturer's instructions. Mutagenic primers with the desired mutation were designed using the […]® Primer Design Program (Stratagene website) and are listed in Table 1-2). The DNA templates for the PCR amplifications were the pET28a-Man5A-TM1 plasmid and the pET46-Man5B plasmid for generation of the Man5A-TM1 and Man5B mutants, respectively. Following 18 cycles of PCR using Pfu Turbo, the PCR mixture was digested with DpnI at 37° C. for 12 h to remove the parental DNA, and the resulting DNA was transformed into competent E. coli JM109 cells through electroporation. The DNA was sequenced to confirm that there were no PCR-derived nucleotide changes except those introduced by the PCR primers. The mutated genes were then expressed to produce the mutant recombinant proteins. The expression and purification methods were as described above for wild-type Man5A-TM1 and Man5B.
as §3

[4] = substrate: O=[N+]([O-])c1ccc(O[C@@H]2O[C@H](CO)[C@@H](O[C@@H]3O[C@H](CO)[C@@H](O)[C@H](O)[C@H]3O)[C@H](O)[C@H]2O)cc1; experiment: as above; conditions: other: Man5B E137Q 2 μM, 65° C., citrate buffer pH 5.5
Method: as §1, §4, §3

[5] = substrate: O=[N+]([O-])c1ccc(O[C@@H]2O[C@H](CO)[C@@H](O)[C@H](O)[C@@H]2O)cc1; experiment: Kinetic properties with pNP-linked sugars (Man5B E258A); conditions: other: Man5B E258A 2 μM, at 10 mM substrate, 65° C., pH 5.5
Method: as §1, §2, §3

[6] = substrate: O=[N+]([O-])c1ccc(O[C@@H]2O[C@H](CO)[C@@H](O[C@@H]3O[C@H](CO)[C@@H](O)[C@H](O)[C@H]3O)[C@H](O)[C@H]2O)cc1; experiment: as above; conditions: other: Man5B E258A 2 μM, at 10 mM substrate, 65° C., pH 5.5
Method: as §1, §2, §3

[7] = substrate: O=[N+]([O-])c1ccc(O[C@@H]2O[C@H](CO)[C@@H](O)[C@H](O)[C@@H]2O)cc1; experiment: Kinetic properties with pNP-linked sugars (Man5B E258Q); conditions: other: Man5B E258Q 2 μM, at 10 mM substrate, 65° C., pH 5.5
Method: as §1, §2, §3

[8] = substrate: O=[N+]([O-])c1ccc(O[C@@H]2O[C@H](CO)[C@@H](O[C@@H]3O[C@H](CO)[C@@H](O)[C@H](O)[C@H]3O)[C@H](O)[C@H]2O)cc1; experiment: as above; conditions: other: Man5B E258Q 2 μM, at 10 mM substrate, 65° C., pH 5.5
Method: as §1, §2, §3

B1: Caldanaerobius polysaccharolyticus endo-β-mannanase Man5B (SEQ ID NO: 31) variant E137A (Caldanaerobius polysaccharolyticus; E137A) (protein)
chain: MKKYGFNFQWMYVWEEGREPEPPDKKALDFLAETGFNFVRIPVDYRFWTRNFDYFNPDKKVFEYIDLYLRECSARNIHMCLNLHRAPGYCINRNDIERDNLWLDKRAQDGFVYQWELFAKRYKGVSSKFLSFDLVNAPPNIGQYGLTRENHASLIIRTVEAIRKIDPDREIVIDGLGGGNIAMPELAHLGVVHSGRGYQPMALTHYQASWWDGHKGLPEPYYPDLLWQGKVWNKDTLREYYKPWRDLQQKGVNVHIGEFGCFNKTSNDVAIRWFEDVLSLYKEFEWGYSLWNFKGPFGIVEHGRPGAKYEYYRGFKVDRELLDLLVENRV
For B1, the kcat [1] was 0.019 ± 0.001 s⁻¹ and the kcat [2] was 0.011 ± 0.004 s⁻¹.

B2: Caldanaerobius polysaccharolyticus endo-β-mannanase Man5B (SEQ ID NO: 31) variant E137Q (Caldanaerobius polysaccharolyticus; E137Q) (protein)
chain: MKKYGFNFQWMYVWEEGREPEPPDKKALDFLAETGFNFVRIPVDYRFWTRNFDYFNPDKKVFEYIDLYLRECSARNIHMCLNLHRAPGYCINRNDIERDNLWLDKRAQDGFVYQWELFAKRYKGVSSKFLSFDLVNQPPNIGQYGLTRENHASLIIRTVEAIRKIDPDREIVIDGLGGGNIAMPELAHLGVVHSGRGYQPMALTHYQASWWDGHKGLPEPYYPDLLWQGKVWNKDTLREYYKPWRDLQQKGVNVHIGEFGCFNKTSNDVAIRWFEDVLSLYKEFEWGYSLWNFKGPFGIVEHGRPGAKYEYYRGFKVDRELLDLLVENRV
For B2, the kcat [3] was 0.018 ± 0.006 s⁻¹, the Km [4] was “(2.9 ± 0.9) × 10^−1 mM” and the kcat [4] was 0.047 ± 0.01 s⁻¹. For the same protein, the kcat/Km [4] was 160 ± 60 M⁻¹ s⁻¹.

B3: Caldanaerobius polysaccharolyticus endo-β-mannanase Man5B (SEQ ID NO: 31) variant E258A (Caldanaerobius polysaccharolyticus; E258A) (protein)
chain: MKKYGFNFQWMYVWEEGREPEPPDKKALDFLAETGFNFVRIPVDYRFWTRNFDYFNPDKKVFEYIDLYLRECSARNIHMCLNLHRAPGYCINRNDIERDNLWLDKRAQDGFVYQWELFAKRYKGVSSKFLSFDLVNEPPNIGQYGLTRENHASLIIRTVEAIRKIDPDREIVIDGLGGGNIAMPELAHLGVVHSGRGYQPMALTHYQASWWDGHKGLPEPYYPDLLWQGKVWNKDTLREYYKPWRDLQQKGVNVHIGAFGCFNKTSNDVAIRWFEDVLSLYKEFEWGYSLWNFKGPFGIVEHGRPGAKYEYYRGFKVDRELLDLLVENRV
Protein B3 has a kcat [5] of 0.018 ± 0.003 s⁻¹ and a kcat [6] of 0.011 ± 0.001 s⁻¹.

B4: Caldanaerobius polysaccharolyticus endo-β-mannanase Man5B (SEQ ID NO: 31) variant E258Q (Caldanaerobius polysaccharolyticus; E258Q) (protein)
chain: MKKYGFNFQWMYVWEEGREPEPPDKKALDFLAETGFNFVRIPVDYRFWTRNFDYFNPDKKVFEYIDLYLRECSARNIHMCLNLHRAPGYCINRNDIERDNLWLDKRAQDGFVYQWELFAKRYKGVSSKFLSFDLVNEPPNIGQYGLTRENHASLIIRTVEAIRKIDPDREIVIDGLGGGNIAMPELAHLGVVHSGRGYQPMALTHYQASWWDGHKGLPEPYYPDLLWQGKVWNKDTLREYYKPWRDLQQKGVNVHIGQFGCFNKTSNDVAIRWFEDVLSLYKEFEWGYSLWNFKGPFGIVEHGRPGAKYEYYRGFKVDRELLDLLVENRV
B4 was tested, and the kcat [7] was 0.012 ± 0.002 s⁻¹ and the kcat [8] was 0.012 ± 0.004 s⁻¹.
